Laboratory results taken from patent publication US20040086495.

Molecular target: T1, phospho-BAD (recombinant BAD as GST-fusion protein, phosphorylated in vitro with PKA and [gamma-32P]ATP), Q61337
T1 chain: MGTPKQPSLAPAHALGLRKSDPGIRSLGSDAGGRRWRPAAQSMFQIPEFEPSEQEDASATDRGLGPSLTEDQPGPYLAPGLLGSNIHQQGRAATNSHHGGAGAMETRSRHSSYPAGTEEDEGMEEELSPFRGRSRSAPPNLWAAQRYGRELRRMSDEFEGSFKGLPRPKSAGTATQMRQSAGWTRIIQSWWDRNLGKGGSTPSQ

B1: PP2Cβ from bovine brain (protein phosphatase type 2C beta), recombinant, expressed in E. coli (protein)
chain: MGAFLDKPKTEKHNAHGAGNGLRYGLSSMQGWRVEMEDAHTAVVGIPHGLEDWSFFAVYDGHAGSRVANYCSTHLLEHITNNEDFRAAGKSGSALEPSVENVKNGIRTGFLKIDEYMRNFSDLRNGMDRSGSTAVGVMISPKHIYFINCGDSRAVLYRSGQVCFSTQDHKPCNPREKERIQNAGGSVMIQRVNGSLAVSRALGDYDYKCVDGKGPTEQLVSPEPEVYEILRAEEDEFIILACDGIWDVMSNEELCEFVKSRLEVSDDLENVCNWVVDTCLHKGSRDNMSIVLVCFSNAPKVSDEAMRKDSELDKYLESRVEEIMEKSGEEGMPDLAHVMRILSAENIPNLPPGGGLAGKRHVIEAVYSRLNPHRESDGGAGDLEDPW
dephosphorylation of [32P]BAD by PP2C in vitro (SDS-PAGE, autoradiography): The dephosphorylation of phospho-BAD by PP2C is dependent as well on time and concentration. | dephosphorylation of phospho-BAD sites by PP2C: Here it could be shown, that PP2C preferably dephosphorylates P-ser^155 compared to P-ser^112 and P-ser^136.
